Experimental data: patent US20190276501

Columns and labels:
[1] = biological target: T1, Ap-EncD60^TEVK138^TEV-His
T1 chain: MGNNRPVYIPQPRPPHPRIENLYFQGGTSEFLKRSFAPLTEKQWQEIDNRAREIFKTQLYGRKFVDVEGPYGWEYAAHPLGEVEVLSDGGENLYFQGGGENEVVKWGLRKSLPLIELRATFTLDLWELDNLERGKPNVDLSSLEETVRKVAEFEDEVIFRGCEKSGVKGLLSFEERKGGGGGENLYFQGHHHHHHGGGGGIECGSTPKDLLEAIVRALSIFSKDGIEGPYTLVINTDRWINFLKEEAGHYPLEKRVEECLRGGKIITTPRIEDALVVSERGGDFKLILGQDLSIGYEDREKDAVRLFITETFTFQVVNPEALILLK

Ap-EncK138^TEV-His = biological target: T2, Ap-EncK138^TEV-His
T2 chain: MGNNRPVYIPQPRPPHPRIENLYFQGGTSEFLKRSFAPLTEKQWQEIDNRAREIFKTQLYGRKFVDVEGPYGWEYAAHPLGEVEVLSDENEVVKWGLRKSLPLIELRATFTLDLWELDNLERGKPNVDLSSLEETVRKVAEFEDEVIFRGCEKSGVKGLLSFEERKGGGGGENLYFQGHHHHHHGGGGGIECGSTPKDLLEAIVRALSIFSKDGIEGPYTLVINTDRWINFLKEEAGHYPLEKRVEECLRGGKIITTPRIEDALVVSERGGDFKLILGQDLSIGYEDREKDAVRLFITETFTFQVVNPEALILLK

[2] = biological target: T3, Ap-EncK71^TEVK138^TEV-His
T3 chain: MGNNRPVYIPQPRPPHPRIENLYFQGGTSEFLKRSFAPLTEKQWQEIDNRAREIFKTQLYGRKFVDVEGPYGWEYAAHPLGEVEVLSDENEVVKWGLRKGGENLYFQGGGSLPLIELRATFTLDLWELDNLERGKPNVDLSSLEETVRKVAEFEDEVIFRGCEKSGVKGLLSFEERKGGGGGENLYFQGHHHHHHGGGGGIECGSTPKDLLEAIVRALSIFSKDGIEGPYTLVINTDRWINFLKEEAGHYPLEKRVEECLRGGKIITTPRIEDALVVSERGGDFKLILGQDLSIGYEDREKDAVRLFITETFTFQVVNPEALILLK

[3] = biological target: T4, HB-EncD60^TEVK138^TEV-His with a GT linker between the TEV site and the N-terminus of Enc
T4 chain: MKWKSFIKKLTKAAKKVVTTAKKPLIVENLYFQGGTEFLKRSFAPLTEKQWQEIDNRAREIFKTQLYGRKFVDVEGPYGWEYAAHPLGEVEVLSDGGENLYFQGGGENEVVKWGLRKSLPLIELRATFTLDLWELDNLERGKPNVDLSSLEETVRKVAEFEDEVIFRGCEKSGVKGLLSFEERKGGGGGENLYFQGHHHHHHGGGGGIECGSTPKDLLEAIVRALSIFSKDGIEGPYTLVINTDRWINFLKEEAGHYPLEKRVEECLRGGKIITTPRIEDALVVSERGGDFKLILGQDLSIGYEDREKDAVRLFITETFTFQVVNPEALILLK

[4] = biological target: T5, HB-EncD60^TEVK138^TEV-His
T5 chain: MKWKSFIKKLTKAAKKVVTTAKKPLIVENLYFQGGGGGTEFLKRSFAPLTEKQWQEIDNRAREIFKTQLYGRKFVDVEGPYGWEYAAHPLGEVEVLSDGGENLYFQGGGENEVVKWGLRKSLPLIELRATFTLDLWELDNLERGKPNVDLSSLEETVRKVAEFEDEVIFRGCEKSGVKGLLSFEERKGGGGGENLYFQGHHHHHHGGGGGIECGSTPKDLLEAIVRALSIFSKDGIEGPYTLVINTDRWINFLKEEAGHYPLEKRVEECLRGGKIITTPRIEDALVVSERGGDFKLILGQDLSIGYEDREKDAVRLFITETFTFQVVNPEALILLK

[5] = biological target: T6, HB-EncK138^TEV-His with a GT linker between the TEV site and the N-terminus of Enc
T6 chain: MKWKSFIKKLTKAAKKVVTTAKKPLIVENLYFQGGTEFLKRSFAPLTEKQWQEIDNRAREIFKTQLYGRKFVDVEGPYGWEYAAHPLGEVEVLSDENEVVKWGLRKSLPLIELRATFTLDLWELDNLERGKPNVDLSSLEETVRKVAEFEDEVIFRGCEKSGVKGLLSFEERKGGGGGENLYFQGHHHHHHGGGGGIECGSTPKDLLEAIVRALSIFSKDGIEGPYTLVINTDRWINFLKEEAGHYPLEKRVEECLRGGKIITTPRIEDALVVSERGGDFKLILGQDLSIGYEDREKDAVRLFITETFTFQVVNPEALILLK

[6] = biological target: HB-EncK138^TEV-His, EncD60^TEVK138^TEV-His, and HB-EncV57^TEVK138^TEV-His
HB-EncK138^TEV-His = biological target: T7, HB-EncK138^TEV-His
T7 chain: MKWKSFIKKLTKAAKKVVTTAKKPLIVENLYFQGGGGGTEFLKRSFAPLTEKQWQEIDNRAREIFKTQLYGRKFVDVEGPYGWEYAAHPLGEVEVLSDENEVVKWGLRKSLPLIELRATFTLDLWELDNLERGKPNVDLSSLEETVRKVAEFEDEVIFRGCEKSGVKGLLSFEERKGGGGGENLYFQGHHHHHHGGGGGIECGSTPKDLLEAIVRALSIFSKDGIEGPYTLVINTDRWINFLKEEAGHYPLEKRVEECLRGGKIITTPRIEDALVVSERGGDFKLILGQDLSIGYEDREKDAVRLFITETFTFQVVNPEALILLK

[7] = biological target: T8, HB-EncV57^TEVK138^TEV-His with a GT linker between the TEV site and the N-terminus of Enc
T8 chain: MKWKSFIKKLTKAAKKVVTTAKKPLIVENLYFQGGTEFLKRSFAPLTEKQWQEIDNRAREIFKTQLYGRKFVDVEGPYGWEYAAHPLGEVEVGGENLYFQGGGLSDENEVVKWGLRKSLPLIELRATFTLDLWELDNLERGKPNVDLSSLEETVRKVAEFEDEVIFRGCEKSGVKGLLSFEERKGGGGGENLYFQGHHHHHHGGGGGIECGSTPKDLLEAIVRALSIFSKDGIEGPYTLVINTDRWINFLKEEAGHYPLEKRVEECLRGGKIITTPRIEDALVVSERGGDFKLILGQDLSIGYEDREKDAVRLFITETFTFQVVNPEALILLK

[8] = biological target: T9, HB-EncV57^TEVK138^TEV-His
T9 chain: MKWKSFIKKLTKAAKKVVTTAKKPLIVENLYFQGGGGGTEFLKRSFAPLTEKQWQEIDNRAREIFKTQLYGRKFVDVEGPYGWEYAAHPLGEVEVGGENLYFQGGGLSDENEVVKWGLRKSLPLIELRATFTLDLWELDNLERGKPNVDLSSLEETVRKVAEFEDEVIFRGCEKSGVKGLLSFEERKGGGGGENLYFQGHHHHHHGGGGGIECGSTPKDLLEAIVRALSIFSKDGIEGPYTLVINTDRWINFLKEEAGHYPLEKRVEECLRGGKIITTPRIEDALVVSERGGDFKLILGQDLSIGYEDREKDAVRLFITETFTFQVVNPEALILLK

B1: TEV protease (protein)
chain: GESLFKGPRDYNPISSTICHLTNESDGHTTSLYGIGFGPFIITNKHLFRRNNGTLLVQSLHGVFKVKNTTTLQQHLIDGRDMIIIRMPKDFPPFPQKLKFREPQREERICLVTTNFQTKSMSSMVSDTSCTFPSSDGIFWKHWIQTKDGQCGSPLVSTRDGFIVGIHSASNFTNTNNYFTSVPKNFMELLTNQEAQQWVSGWRLNADSVLWGGHKVFMSKPEEPFQPVKEATQLMNELVYSQ
TEV protease digestion, SDS-PAGE and anti-TEV site Western blot (up to 20 h at 30 C) [1]: not well digested by TEV protease | TEV protease digestion, SDS-PAGE and anti-TEV site Western blot (up to 20 h at 30 C) (Ap-EncK138^TEV-His): not well digested by TEV protease | TEV protease digestion, SDS-PAGE and anti-TEV site Western blot (up to 20 h at 30 C) [2]: construct 125 (Ap-Encap(K71, K138)) is digested by TEV protease to near completion | release of HB peptide after TEV protease digestion (SDS-PAGE) [3]: did not result in detectable release of HB peptide by SDS-PAGE | release of HBCM2 peptide after TEV protease digestion (densitometry) [4]: released fewer peptide per fusion protein | release of HBCM2 peptide after TEV protease digestion (overnight, 4 C; Tris-Tricine gel) [4]: All constructs were found to at least partially release HBCM2 peptide | release of HB peptide after TEV protease digestion (SDS-PAGE) [5]: did not result in detectable release of HB peptide by SDS-PAGE | relative HB/HB-Enc ratio (densitometry after TEV protease digestion) [6]: a relative HB/HB-Enc ratio of 0.26 to 0.56 | release of HBCM2 peptide after TEV protease digestion (densitometry) (HB-EncK138^TEV-His): released fewer peptide per fusion protein | release of HBCM2 peptide after TEV protease digestion (overnight, 4 C; Tris-Tricine gel) (HB-EncK138^TEV-His): All constructs were found to at least partially release HBCM2 peptide | release of HB peptide after TEV protease digestion (SDS-PAGE) [7]: did not result in detectable release of HB peptide by SDS-PAGE | release of HBCM2 peptide after TEV protease digestion (densitometry) [8]: released fewer peptide per fusion protein | release of HBCM2 peptide after TEV protease digestion (overnight, 4 C; Tris-Tricine gel) [8]: All constructs were found to at least partially release HBCM2 peptide
